Laboratory results published in patent US20240352087A1.

T1: HLA-A*01:01 (human), P04439
T1 chain: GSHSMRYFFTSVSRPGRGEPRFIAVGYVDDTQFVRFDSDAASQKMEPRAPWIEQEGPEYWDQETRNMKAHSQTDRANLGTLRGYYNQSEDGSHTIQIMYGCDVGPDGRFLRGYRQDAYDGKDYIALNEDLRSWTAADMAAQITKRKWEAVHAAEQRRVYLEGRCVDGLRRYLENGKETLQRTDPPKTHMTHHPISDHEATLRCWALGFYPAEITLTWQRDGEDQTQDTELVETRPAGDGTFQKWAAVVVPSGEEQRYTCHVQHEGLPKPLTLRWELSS

T2: HLA-A*02:01 (human), P04439
T2 chain: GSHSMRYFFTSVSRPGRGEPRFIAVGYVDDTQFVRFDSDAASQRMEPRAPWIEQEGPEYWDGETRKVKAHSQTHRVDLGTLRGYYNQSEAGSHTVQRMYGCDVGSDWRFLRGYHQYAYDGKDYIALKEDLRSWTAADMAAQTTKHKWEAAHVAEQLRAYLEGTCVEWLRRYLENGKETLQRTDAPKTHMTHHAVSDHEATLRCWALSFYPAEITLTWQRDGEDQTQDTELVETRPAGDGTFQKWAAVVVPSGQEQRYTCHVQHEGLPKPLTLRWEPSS


Legend:
[1] = target: T1, HLA-A*01:01 (human), P04439; experiment: HLA-binding assay; conditions: chains peptide; modification not given
[2] = target: T2, HLA-A*02:01 (human), P04439; experiment: HLA-binding assay; conditions: chains peptide; modification not given

| Binder | IC50 [1] [nM] | IC50 [2] [nM] |
| --- | --- | --- |
| KSAIVTLTY [HPV E2 329-337 peptide …] | 11 | – |
| VLLLWITAA [HPV E5 46-54 peptide …] | – | 11 |
| QVDYYGLYY [HPV E2 151-159 peptide …] | 18 | – |
